Columns and labels:
[1] = biological target: amino-terminal acidic domain of TRF1 fused to LexA (LexAd68-C) (human) (UniProt P54274); experiment: cell-based or functional assay
[2] = biological target: T1, TRF2 (telomeric repeat binding factor 2), Q15554
T1 chain: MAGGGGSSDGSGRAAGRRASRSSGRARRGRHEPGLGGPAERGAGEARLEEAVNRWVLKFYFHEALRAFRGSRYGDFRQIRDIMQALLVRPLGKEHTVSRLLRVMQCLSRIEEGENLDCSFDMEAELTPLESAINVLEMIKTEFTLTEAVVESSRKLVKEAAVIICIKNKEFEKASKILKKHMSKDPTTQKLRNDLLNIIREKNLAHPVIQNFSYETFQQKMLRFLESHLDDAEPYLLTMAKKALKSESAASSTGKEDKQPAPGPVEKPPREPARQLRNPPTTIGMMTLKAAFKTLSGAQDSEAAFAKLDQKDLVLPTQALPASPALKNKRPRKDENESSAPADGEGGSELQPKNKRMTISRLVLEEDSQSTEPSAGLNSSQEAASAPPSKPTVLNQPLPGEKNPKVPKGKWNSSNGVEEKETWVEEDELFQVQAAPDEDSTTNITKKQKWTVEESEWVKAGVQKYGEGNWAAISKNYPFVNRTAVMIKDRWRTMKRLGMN

[3] = biological target: T2, baculovirus-derived TRF1, P54274
T2 chain: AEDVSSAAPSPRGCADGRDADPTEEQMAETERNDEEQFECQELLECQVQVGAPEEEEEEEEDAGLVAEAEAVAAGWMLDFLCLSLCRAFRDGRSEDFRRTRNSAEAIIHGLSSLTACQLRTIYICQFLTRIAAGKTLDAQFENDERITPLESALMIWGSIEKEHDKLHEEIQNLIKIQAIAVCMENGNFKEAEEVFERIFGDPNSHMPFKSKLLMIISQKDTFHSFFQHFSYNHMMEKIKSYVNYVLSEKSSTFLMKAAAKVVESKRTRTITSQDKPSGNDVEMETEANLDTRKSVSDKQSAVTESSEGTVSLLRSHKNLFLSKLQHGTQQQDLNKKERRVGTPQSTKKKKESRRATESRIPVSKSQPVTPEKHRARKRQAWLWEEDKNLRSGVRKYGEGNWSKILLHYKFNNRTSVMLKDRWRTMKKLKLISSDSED

[4] = biological target: T3, FLAG-tankyrase (encoding amino acids 2-1327 of SEQ ID NO:2) (human, UniProt O95271 2-1327); experiment: indirect immunofluorescence of co-transfected HeLaI cells (co-localization, nuclear translocation)
T3 construct: Expressed by transient transfection in HeLaI cells; also called exogenous tankyrase; transfected tankyrase
T3 sequence: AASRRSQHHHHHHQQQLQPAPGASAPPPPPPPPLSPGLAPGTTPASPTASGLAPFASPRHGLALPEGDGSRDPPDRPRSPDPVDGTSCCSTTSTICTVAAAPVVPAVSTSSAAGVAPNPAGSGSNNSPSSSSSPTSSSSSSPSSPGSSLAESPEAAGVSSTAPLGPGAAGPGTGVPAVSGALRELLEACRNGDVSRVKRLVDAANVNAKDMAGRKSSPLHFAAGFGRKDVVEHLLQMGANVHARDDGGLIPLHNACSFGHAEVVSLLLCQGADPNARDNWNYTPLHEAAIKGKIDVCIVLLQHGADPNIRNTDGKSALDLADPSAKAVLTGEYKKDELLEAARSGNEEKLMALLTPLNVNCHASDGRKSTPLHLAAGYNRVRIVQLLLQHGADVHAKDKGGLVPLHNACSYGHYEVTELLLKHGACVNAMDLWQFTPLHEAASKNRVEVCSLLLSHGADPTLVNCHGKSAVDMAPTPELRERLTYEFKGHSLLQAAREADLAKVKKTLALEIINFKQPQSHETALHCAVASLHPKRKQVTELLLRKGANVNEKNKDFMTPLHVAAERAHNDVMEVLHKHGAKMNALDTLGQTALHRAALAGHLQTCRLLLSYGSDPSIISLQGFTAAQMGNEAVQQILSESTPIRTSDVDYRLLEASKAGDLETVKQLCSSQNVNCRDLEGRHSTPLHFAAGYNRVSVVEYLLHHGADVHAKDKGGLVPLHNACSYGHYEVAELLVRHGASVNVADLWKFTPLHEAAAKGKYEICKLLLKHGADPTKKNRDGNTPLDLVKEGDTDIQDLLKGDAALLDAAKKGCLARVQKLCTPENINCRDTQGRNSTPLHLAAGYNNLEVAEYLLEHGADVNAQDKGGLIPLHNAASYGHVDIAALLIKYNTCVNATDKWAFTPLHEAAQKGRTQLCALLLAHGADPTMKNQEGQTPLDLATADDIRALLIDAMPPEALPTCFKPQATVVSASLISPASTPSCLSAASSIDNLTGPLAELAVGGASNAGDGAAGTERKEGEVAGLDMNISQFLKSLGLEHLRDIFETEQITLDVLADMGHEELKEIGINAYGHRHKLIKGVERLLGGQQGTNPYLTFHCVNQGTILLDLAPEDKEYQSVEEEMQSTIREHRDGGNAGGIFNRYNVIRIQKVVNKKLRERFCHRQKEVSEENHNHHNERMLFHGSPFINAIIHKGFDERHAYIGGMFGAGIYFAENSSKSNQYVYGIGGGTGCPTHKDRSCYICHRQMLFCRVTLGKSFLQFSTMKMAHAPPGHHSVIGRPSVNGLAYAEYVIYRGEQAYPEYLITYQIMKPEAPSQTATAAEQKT

[5] = biological target: T4, GAD-tankyrase hybrid containing 10 internal ANK repeats (9-19) (TR1L-12) (human, UniProt O95271 436-797); experiment: yeast two-hybrid, β-galactosidase; LexA without TRF1 sequences
T4 construct: the construct holds only ANK repeats 9-19; also called 10-ANK repeat domain of tankyrase
T4 sequence: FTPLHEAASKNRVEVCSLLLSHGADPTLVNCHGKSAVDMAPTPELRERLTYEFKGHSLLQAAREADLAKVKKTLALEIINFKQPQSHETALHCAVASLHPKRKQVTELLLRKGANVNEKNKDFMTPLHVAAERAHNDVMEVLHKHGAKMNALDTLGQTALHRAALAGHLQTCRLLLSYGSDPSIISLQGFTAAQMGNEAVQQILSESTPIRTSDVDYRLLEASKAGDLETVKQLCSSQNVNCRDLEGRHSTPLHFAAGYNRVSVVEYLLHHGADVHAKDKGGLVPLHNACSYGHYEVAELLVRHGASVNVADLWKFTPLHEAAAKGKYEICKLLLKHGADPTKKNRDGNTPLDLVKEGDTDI
Procedure: TR1L-4 and TR1L-12 were isolated from a human liver two-hybrid cDNA library (Clontech) created in pGad10. The library was screened with human full length TRF1 cDNA fused to LexA (LexA-TRF1) [Bianchi et al., EMBO J., 16:1785-1794 (1997)] in the yeast strain L40 as described [Hollenberg et al., Mol. Cell Biol., 15:3813-3822 (1995)]. Two-hybrid analysis was performed as described by Bianchi et al. [EMBO J., 16:1785-1794 (1997)]. β-galactosidase assays for the two-hybrid analysis was performed as described by Bianchi et al. [EMBO J., 16:1785-1794 (1997)].
Two-hybrid analysis was used to determine the interacting domains between tankyrase and TRF1. […] To determine the tankyrase-interacting domain in TRF1, two-hybrid analysis was performed with the 10-ANK repeat domain of TR1L-12 fused to the GAL4 activation domain (GAD-tankyrase) and full-length and deletion constructs of TRF1 fused to LexA. […] As observed previously, the amino-terminal acidic domain of TFR1 (LexAd68-C) activated transcription even in the absence of tankyrase sequences in the GAD fusion partner. […] Deletion of the acidic domain of TRF1 (ΔN66-LexA) abolished the interaction with GAD-tankyrase.

**Q.** For “GAD-tankyrase hybrid containing 10 internal ANK repeats (9-19) (TR1L-12) (from UniProt O95271 436-797)”, which β-galactosidase levels (two-hybrid) [1] is on record?
**A.** 50.4 units

B1: baculovirus-derived N-terminally [His]6-tagged fusion protein of human tankyrase (protein)
chain: MAASRRSQHHHHHHQQQLQPAPGASAPPPPPPPPLSPGLAPGTTPASPTASGLAPFASPRHGLALPEGDGSRDPPDRPRSPDPVDGTSCCSTTSTICTVAAAPVVPAVSTSSAAGVAPNPAGSGSNNSPSSSSSPTSSSSSSPSSPGSSLAESPEAAGVSSTAPLGPGAAGPGTGVPAVSGALRELLEACRNGDVSRVKRLVDAANVNAKDMAGRKSSPLHFAAGFGRKDVVEHLLQMGANVHARDDGGLIPLHNACSFGHAEVVSLLLCQGADPNARDNWNYTPLHEAAIKGKIDVCIVLLQHGADPNIRNTDGKSALDLADPSAKAVLTGEYKKDELLEAARSGNEEKLMALLTPLNVNCHASDGRKSTPLHLAAGYNRVRIVQLLLQHGADVHAKDKGGLVPLHNACSYGHYEVTELLLKHGACVNAMDLWQFTPLHEAASKNRVEVCSLLLSHGADPTLVNCHGKSAVDMAPTPELRERLTYEFKGHSLLQAAREADLAKVKKTLALEIINFKQPQSHETALHCAVASLHPKRKQVTELLLRKGANVNEKNKDFMTPLHVAAERAHNDVMEVLHKHGAKMNALDTLGQTALHRAALAGHLQTCRLLLSYGSDPSIISLQGFTAAQMGNEAVQQILSESTPIRTSDVDYRLLEASKAGDLETVKQLCSSQNVNCRDLEGRHSTPLHFAAGYNRVSVVEYLLHHGADVHAKDKGGLVPLHNACSYGHYEVAELLVRHGASVNVADLWKFTPLHEAAAKGKYEICKLLLKHGADPTKKNRDGNTPLDLVKEGDTDIQDLLKGDAALLDAAKKGCLARVQKLCTPENINCRDTQGRNSTPLHLAAGYNNLEVAEYLLEHGADVNAQDKGGLIPLHNAASYGHVDIAALLIKYNTCVNATDKWAFTPLHEAAQKGRTQLCALLLAHGADPTMKNQEGQTPLDLATADDIRALLIDAMPPEALPTCFKPQATVVSASLISPASTPSCLSAASSIDNLTGPLAELAVGGASNAGDGAAGTERKEGEVAGLDMNISQFLKSLGLEHLRDIFETEQITLDVLADMGHEELKEIGINAYGHRHKLIKGVERLLGGQQGTNPYLTFHCVNQGTILLDLAPEDKEYQSVEEEMQSTIREHRDGGNAGGIFNRYNVIRIQKVVNKKLRERFCHRQKEVSEENHNHHNERMLFHGSPFINAIIHKGFDERHAYIGGMFGAGIYFAENSSKSNQYVYGIGGGTGCPTHKDRSCYICHRQMLFCRVTLGKSFLQFSTMKMAHAPPGHHSVIGRPSVNGLAYAEYVIYRGEQAYPEYLITYQIMKPEAPSQTATAAEQKT
**Q.** How did the “ADP-ribosylation (PARP assay)” value [2] turn out when B1 was run?
**A.** TRF2 is not a substrate for modification in vitro

**Q.** What about the “ADP-ribosylation of TRF1 (PARP assay with [32P]NAD+)” value [3] of the same molecule?
**A.** Tankyrase also has the ability to modify TRF1

B2: human TRF1 (telomeric repeat binding factor 1), expressed from pcDNA3-hTRF1 in HeLaI cells (other, UniProt P54274 1-439, looked up)
chain: MAEDVSSAAPSPRGCADGRDADPTEEQMAETERNDEEQFECQELLECQVQVGAPEEEEEEEEDAGLVAEAEAVAAGWMLDFLCLSLCRAFRDGRSEDFRRTRNSAEAIIHGLSSLTACQLRTIYICQFLTRIAAGKTLDAQFENDERITPLESALMIWGSIEKEHDKLHEEIQNLIKIQAIAVCMENGNFKEAEEVFERIFGDPNSHMPFKSKLLMIISQKDTFHSFFQHFSYNHMMEKIKSYVNYVLSEKSSTFLMKAAAKVVESKRTRTITSQDKPSGNDVEMETEANLDTRKSVSDKQSAVTESSEGTVSLLRSHKNLFLSKLQHGTQQQDLNKKERRVGTPQSTKKKKESRRATESRIPVSKSQPVTPEKHRARKRQAWLWEEDKNLRSGVRKYGEGNWSKILLHYKFNNRTSVMLKDRWRTMKKLKLISSDSED
**Q.** Does B2 bind [4]?
**A.** binds

B3: LexA (alone) (other, UniProt P0A7C2 1-202, looked up)
chain: MKALTARQQEVFDLIRDHISQTGMPPTRAEIAQRLGFRSPNAAEEHLKALARKGVIEIVSGASRGIRLLQEEEEGLPLVGRVAAGEPLLAQQHIEGHYQVDPSLFKPNADFLLRVSGMSMKDIGIMDGDLLAVHKTQDVRNGQVVVARIDDEVTVKRLKKQGNKVELLPENSEFKPIVVDLRQQSFTIEGLAVGVIRNGDWL
notes: Control
**Q.** Does B3 bind [5]?
**A.** no binding

— patent US20020076795A1, “Novel TRF1 binding protein, methods of use thereof” (published 2002)
